{"source": "patent US12263210B2", "about": "“Immunogenic compounds for cancer therapy” (priority 2016, dated 2025)", "key": {"[1]": {"test_system": "IFNγ-producing cells (splenocytes)", "assay": "ELISPOT-IFNγ assay on splenocytes of vaccinated β/A2/DR3 mice", "format": "in vivo, mouse", "conditions": "for Percentage of ConA-induced response (ELISPOT-IFNγ): mice vaccinated with the labelled peptide (100 μg s.c. + HHD-DR3, IFA, d0/d14), mean, SEM"}, "HLA-A*0201": {"target": "T1, HLA-A*0201 (Homo sapiens, UniProt P04439, D140Y/D185E/D98H/E176V/E277Q/G131W/G231S/I119V/I121R/I166T/I218V/L300P/L318F/N151K/N90K/P208A/P217A/Q86G/Q94H/R138H/R169H/T345S)", "T1 construct": "the human tumoral cell T2 which expresses the HLA-A*0201 molecule; endogenous in cells; host or cells: T2 cells (human, TAP1/2 negative; 'T2 ATCC Cells')", "assay": "Affinity of the peptide to T2 cell line (HLA-A*0201 expression, FACS)", "format": "cell-based", "conditions": "for Concentration that induces 20% of expression of the HLA-A*0201 / Mean fluorescence intensity: T2 ATCC cells; for Concentration that induces 20% of expression of the HLA-A*0201: Example 1; for Binding to HLA-A*0201 (in words) / Affinity to HLA-A*0201 compared with the corresponding human peptide (in words): T2 cells; for Affinity to HLA-A*0201 compared with the corresponding human peptide (in words): relative affinity, lower value = higher affinity; for Relative affinity: conc. inducing 20% expression / same of reference peptide HIV pol 589-597; for HLA-A2 labelling at 0.1 μM / HLA-A2 labelling at 1 μM / HLA-A2 labelling at 10 μM / HLA-A2 labelling at 100 μM: percentage of labelling of HIV pol 589-597 at 100 μM; for HLA-A2 labelling at 0.1 μM: peptide 0.1 μM; for HLA-A2 labelling at 1 μM: peptide 1 μM; for HLA-A2 labelling at 10 μM: peptide 10 μM; for HLA-A2 labelling at 100 μM: peptide 100 μM", "procedure": "Affinity measurement of the peptides is achieved with the human tumoral cell T2 which expresses the HLA-A*0201 molecule, but which is TAP1/2 negative and incapable of presenting endogenous peptides.\nT2 cells (2.10^5 cells per well) are incubated with decreasing concentrations of peptides from 100 μM to 0.1 μM in a AIMV medium supplemented with 100 ng/μl of human β2m at 37° C. for 16 hours. Cells are then washed two times and marked with the anti-HLA-A2 antibody coupled to PE (clone BB7.2, BD Pharmagen).\nThe analysis is achieved by FACS (Guava Easy Cyte). […]"}, "[2]": {"conditions": "ex vivo re-stimulation with IL13RA2-B pAg 10 μM"}, "[3]": {"conditions": "ex vivo re-stimulation with IL13RA2-H pAg 10 μM"}}}
{"sequence": "WLPFGFILI [IL13RA2-H, reference compound]", "values": [{"measurement": "Percentage of ConA-induced response (ELISPOT-IFNγ)", "setting": "[1]; [2]", "result": 2.0, "unit": "%"}, {"measurement": "Percentage of ConA-induced response (ELISPOT-IFNγ)", "setting": "[1]; [3]", "result": 1.1, "unit": "%"}, {"measurement": "Concentration that induces 20% of expression of the HLA-A*0201", "setting": "HLA-A*0201", "result": 100, "unit": "µM"}, {"measurement": "Binding to HLA-A*0201 (in words)", "setting": "HLA-A*0201", "result": "does not bind"}]}
{"sequence": "VMLGVVFGI [ERBB2-3B3]", "values": [{"measurement": "Affinity to HLA-A*0201 compared with the corresponding human peptide (in words)", "setting": "HLA-A*0201", "result": "higher affinity"}, {"measurement": "Conc. inducing 20% of HLA-A2 expression", "setting": "HLA-A*0201; Table 7", "result": 12.5, "unit": "µM"}]}
{"sequence": "KLVEWLAML [MAGE C1B]", "values": [{"measurement": "Affinity to HLA-A*0201 compared with the corresponding human peptide (in words)", "setting": "HLA-A*0201", "result": "higher affinity"}, {"measurement": "Conc. inducing 20% of HLA-A2 expression", "setting": "HLA-A*0201; Table 8", "result": 30.91, "unit": "µM"}]}
{"sequence": "ILLGVVFGI [ERBB2-3B4]", "values": [{"measurement": "Affinity to HLA-A*0201 compared with the corresponding human peptide (in words)", "setting": "HLA-A*0201", "result": "higher affinity"}, {"measurement": "Conc. inducing 20% of HLA-A2 expression", "setting": "HLA-A*0201; Table 7", "result": 0.9, "unit": "µM"}]}
{"sequence": "MIAVFLPIV [STEAP-H, reference compound]", "values": [{"measurement": "Conc. inducing 20% of HLA-A2 expression", "setting": "HLA-A*0201; Table 8", "result": 33.45, "unit": "µM"}]}
{"sequence": "RLLEETDLV [ERBB2-1B]", "values": [{"measurement": "Affinity to HLA-A*0201 compared with the corresponding human peptide (in words)", "setting": "HLA-A*0201", "result": "higher affinity"}, {"measurement": "Conc. inducing 20% of HLA-A2 expression", "setting": "HLA-A*0201; Table 7", "result": 9.5, "unit": "µM"}]}
{"sequence": "VVLGVVFGI [ERBB2-3H, reference compound]", "values": [{"measurement": "Conc. inducing 20% of HLA-A2 expression", "setting": "HLA-A*0201; Table 7", "result": 16.3, "unit": "µM"}, {"measurement": "Relative affinity", "setting": "HLA-A*0201; Table 7", "result": 0.45}, {"measurement": "HLA-A2 labelling at 0.1 μM", "setting": "HLA-A*0201; Table 7", "result": "−12.61"}, {"measurement": "HLA-A2 labelling at 1 μM", "setting": "HLA-A*0201; Table 7", "result": "−24.03"}, {"measurement": "HLA-A2 labelling at 10 μM", "setting": "HLA-A*0201; Table 7", "result": 11.93}, {"measurement": "HLA-A2 labelling at 100 μM", "setting": "HLA-A*0201; Table 7", "result": 196.47}]}
{"sequence": "SLPPDVQQV [MMP2-B]", "values": [{"measurement": "Affinity to HLA-A*0201 compared with the corresponding human peptide (in words)", "setting": "HLA-A*0201", "result": "higher affinity"}, {"measurement": "Conc. inducing 20% of HLA-A2 expression", "setting": "HLA-A*0201; Table 8", "result": 0.88, "unit": "µM"}]}
{"sequence": "VMLGVVFGV [ERBB2-3B1]", "values": [{"measurement": "Affinity to HLA-A*0201 compared with the corresponding human peptide (in words)", "setting": "HLA-A*0201", "result": "higher affinity"}, {"measurement": "Conc. inducing 20% of HLA-A2 expression", "setting": "HLA-A*0201; Table 7", "result": 9, "unit": "µM"}]}
{"sequence": "YLAVFLPIV [STEAP-B2]", "values": [{"measurement": "Affinity to HLA-A*0201 compared with the corresponding human peptide (in words)", "setting": "HLA-A*0201", "result": "higher affinity"}, {"measurement": "Conc. inducing 20% of HLA-A2 expression", "setting": "HLA-A*0201; Table 8", "result": 8.22, "unit": "µM"}]}
{"sequence": "ITSDVPFSV [PMEL-B]", "values": [{"measurement": "Affinity to HLA-A*0201 compared with the corresponding human peptide (in words)", "setting": "HLA-A*0201", "result": "higher affinity"}, {"measurement": "Conc. inducing 20% of HLA-A2 expression", "setting": "HLA-A*0201; Table 8", "result": 18.24, "unit": "µM"}]}
{"sequence": "GLPPDVQRV [MMP2-H, reference compound]", "values": [{"measurement": "Conc. inducing 20% of HLA-A2 expression", "setting": "HLA-A*0201; Table 8", "result": 1.76, "unit": "µM"}]}
{"sequence": "KVVEFLAML [MAGE C1H, reference compound]", "values": [{"measurement": "Conc. inducing 20% of HLA-A2 expression", "setting": "HLA-A*0201; Table 8", "result": 60.07, "unit": "µM"}]}
{"sequence": "FLPFGFILV [IL13RA2-B]", "values": [{"measurement": "T cell responses in the ELISPOT-IFNγ assay after vaccination (in words)", "setting": "[1]; compared to IL13RA2-H-vaccinated animals (group 2)", "result": "improved T cell responses"}, {"measurement": "Percentage of ConA-induced response (ELISPOT-IFNγ)", "setting": "[1]; [2]", "result": 56.3, "unit": "%"}, {"measurement": "Percentage of ConA-induced response (ELISPOT-IFNγ)", "setting": "[1]; [3]", "result": 32.3, "unit": "%"}, {"measurement": "Concentration that induces 20% of expression of the HLA-A*0201", "setting": "HLA-A*0201", "result": 4.4, "unit": "µM"}, {"measurement": "Mean fluorescence intensity", "setting": "HLA-A*0201; peptide at 0.1 μM", "result": 9.9}, {"measurement": "Mean fluorescence intensity", "setting": "HLA-A*0201; peptide at 100 µM", "result": 112.03}, {"measurement": "Binding to HLA-A*0201 (in words)", "setting": "HLA-A*0201", "result": "binds strongly"}]}
{"sequence": "TMNGKSSPV [ENAH-1B]", "values": [{"measurement": "Affinity to HLA-A*0201 compared with the corresponding human peptide (in words)", "setting": "HLA-A*0201", "result": "higher affinity"}, {"measurement": "Conc. inducing 20% of HLA-A2 expression", "setting": "HLA-A*0201; Table 9", "result": 33.45, "unit": "µM"}, {"measurement": "Relative affinity", "setting": "HLA-A*0201; Table 9", "result": 1.26}, {"measurement": "HLA-A2 labelling at 0.1 μM", "setting": "HLA-A*0201; Table 9", "result": 12.71}, {"measurement": "HLA-A2 labelling at 1 μM", "setting": "HLA-A*0201; Table 9", "result": 14.18}, {"measurement": "HLA-A2 labelling at 10 μM", "setting": "HLA-A*0201; Table 9", "result": 2.93}, {"measurement": "HLA-A2 labelling at 100 μM", "setting": "HLA-A*0201; Table 9", "result": 100.24}]}
{"sequence": "VLLGVVFGV [ERBB2-3B2]", "values": [{"measurement": "Affinity to HLA-A*0201 compared with the corresponding human peptide (in words)", "setting": "HLA-A*0201", "result": "higher affinity"}, {"measurement": "Conc. inducing 20% of HLA-A2 expression", "setting": "HLA-A*0201; Table 7", "result": 6.9, "unit": "µM"}, {"measurement": "Relative affinity", "setting": "HLA-A*0201; Table 7", "result": 0.19}, {"measurement": "HLA-A2 labelling at 0.1 μM", "setting": "HLA-A*0201; Table 7", "result": "−14.62"}, {"measurement": "HLA-A2 labelling at 1 μM", "setting": "HLA-A*0201; Table 7", "result": 1.51}, {"measurement": "HLA-A2 labelling at 10 μM", "setting": "HLA-A*0201; Table 7", "result": 56.97}, {"measurement": "HLA-A2 labelling at 100 μM", "setting": "HLA-A*0201; Table 7", "result": 335.97}]}
{"sequence": "MLAVFLPLV [STEAP-B1]", "values": [{"measurement": "Affinity to HLA-A*0201 compared with the corresponding human peptide (in words)", "setting": "HLA-A*0201", "result": "higher affinity"}, {"measurement": "Conc. inducing 20% of HLA-A2 expression", "setting": "HLA-A*0201; Table 8", "result": 5, "unit": "µM"}]}
{"sequence": "TMNGSKSPV [ENAH-1H, reference compound]", "values": [{"measurement": "Binding to HLA-A*0201 (in words)", "setting": "HLA-A*0201", "result": "does not bind"}, {"measurement": "HLA-A2 labelling at 0.1 μM", "setting": "HLA-A*0201; Table 9", "result": 8.31}, {"measurement": "HLA-A2 labelling at 1 μM", "setting": "HLA-A*0201; Table 9", "result": "−2.93"}, {"measurement": "HLA-A2 labelling at 10 μM", "setting": "HLA-A*0201; Table 9", "result": 19.07}, {"measurement": "HLA-A2 labelling at 100 μM", "setting": "HLA-A*0201; Table 9", "result": 18.58}]}
